Target: His-tagged NET1ΔC (coated in ELISA) (not stated (chicken or mouse cDNA cloned))
Experiment: ELISA; NET1ΔC coated; serial dilutions of strep-tagged HSPGs (0.5–500 nM) in solution; detection with strep-HRP; apparent constants

Kd: 10 to 20 nM
Substance: glypican-3 (AF185614 aa 25-557 R357A) (from UniProt Q8CFZ4 25-557) (domain or fragment)
